Data as given in paper PMC3664666 (Science signaling, 2012).

T1: phosphorylated Mt-MviN KHD 681-963 (M. tuberculosis, UniProt P9WJK2 681-963, phosphothreonine at 947)
T1 sequence: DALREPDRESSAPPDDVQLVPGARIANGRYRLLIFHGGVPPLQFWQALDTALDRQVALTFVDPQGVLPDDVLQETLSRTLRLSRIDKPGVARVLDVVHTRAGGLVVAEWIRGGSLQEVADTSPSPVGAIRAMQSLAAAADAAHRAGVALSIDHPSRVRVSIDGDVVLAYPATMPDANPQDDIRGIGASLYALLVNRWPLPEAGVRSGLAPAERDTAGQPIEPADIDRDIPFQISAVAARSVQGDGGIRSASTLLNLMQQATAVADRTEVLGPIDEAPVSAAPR


Biological target: T1, phosphorylated Mt-MviN KHD 681-963
Experiment: ITC

Binder | binding result | fold reduction of the binding affinity against the wild type
FhaA FHA domain Q461A (domain or fragment) PQGGGYAEPAGRDYDYGQSGAPDYGQPAPGGYSGYGQGGYGSAGTSVTLQLDDGSGRTYQLREGSNIIGRGADAQFRLPDTGVSRRHLEIRWDGQVALLADLNSTNGTTVNNAPVQEWQLADGDVIRLGHSEIIVR | binds | 
FhaA FHA domain R459A (domain or fragment) PQGGGYAEPAGRDYDYGQSGAPDYGQPAPGGYSGYGQGGYGSAGTSVTLQLDDGSGRTYQLREGSNIIGAGQDAQFRLPDTGVSRRHLEIRWDGQVALLADLNSTNGTTVNNAPVQEWQLADGDVIRLGHSEIIVR |  | > 170 fold
FhaA FHA domain R474A (domain or fragment) PQGGGYAEPAGRDYDYGQSGAPDYGQPAPGGYSGYGQGGYGSAGTSVTLQLDDGSGRTYQLREGSNIIGRGQDAQFRLPDTGVSARHLEIRWDGQVALLADLNSTNGTTVNNAPVQEWQLADGDVIRLGHSEIIVR |  | 41 fold
